# In US20140072613A1 (published 2014):
# T1: NEK11(h) (human, UniProt Q8NG66 1-645, limits assumed)
# T1 sequence (looked up): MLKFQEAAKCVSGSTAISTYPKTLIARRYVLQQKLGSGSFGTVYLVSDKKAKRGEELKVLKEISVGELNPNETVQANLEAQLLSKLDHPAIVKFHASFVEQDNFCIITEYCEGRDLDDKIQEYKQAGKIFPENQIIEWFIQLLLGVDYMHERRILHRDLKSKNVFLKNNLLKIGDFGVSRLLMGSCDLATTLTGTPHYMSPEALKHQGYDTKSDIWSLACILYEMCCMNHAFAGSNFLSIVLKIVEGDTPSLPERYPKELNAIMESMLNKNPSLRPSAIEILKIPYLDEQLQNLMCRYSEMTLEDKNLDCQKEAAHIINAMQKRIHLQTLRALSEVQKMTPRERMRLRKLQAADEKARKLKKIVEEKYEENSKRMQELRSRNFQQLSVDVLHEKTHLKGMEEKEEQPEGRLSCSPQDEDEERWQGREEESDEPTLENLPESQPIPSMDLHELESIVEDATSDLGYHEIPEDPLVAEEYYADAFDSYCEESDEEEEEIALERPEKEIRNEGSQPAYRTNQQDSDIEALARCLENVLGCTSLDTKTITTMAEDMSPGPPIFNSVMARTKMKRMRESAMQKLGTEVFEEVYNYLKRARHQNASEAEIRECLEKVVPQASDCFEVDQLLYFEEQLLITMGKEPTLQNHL
# T2: Rse(h) (human, UniProt Q06418 451-890, limits assumed)
# T2 sequence (looked up): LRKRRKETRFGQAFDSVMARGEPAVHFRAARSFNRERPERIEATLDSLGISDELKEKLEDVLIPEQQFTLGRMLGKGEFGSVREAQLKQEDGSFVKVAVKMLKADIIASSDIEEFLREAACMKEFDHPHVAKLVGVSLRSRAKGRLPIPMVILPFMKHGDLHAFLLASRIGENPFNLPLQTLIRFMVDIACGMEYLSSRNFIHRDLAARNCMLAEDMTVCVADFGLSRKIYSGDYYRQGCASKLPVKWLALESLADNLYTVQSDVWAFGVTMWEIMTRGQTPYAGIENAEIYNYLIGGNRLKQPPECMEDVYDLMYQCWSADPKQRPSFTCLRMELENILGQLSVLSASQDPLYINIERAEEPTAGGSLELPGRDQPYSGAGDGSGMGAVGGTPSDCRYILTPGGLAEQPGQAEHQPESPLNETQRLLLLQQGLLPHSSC
# T3: TSSK2(h) (human, UniProt Q96PF2 1-358)
# T3 sequence (looked up): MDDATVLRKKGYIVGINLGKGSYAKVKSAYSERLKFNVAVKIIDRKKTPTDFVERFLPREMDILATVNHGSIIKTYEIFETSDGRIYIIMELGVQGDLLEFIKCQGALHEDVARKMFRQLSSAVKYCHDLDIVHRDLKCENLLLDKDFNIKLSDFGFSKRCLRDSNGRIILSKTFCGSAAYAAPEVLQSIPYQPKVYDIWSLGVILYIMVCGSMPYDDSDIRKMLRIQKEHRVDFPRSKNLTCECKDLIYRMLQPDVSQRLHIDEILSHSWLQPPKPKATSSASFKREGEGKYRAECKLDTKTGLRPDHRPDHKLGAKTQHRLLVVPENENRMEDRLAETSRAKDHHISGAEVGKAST
# T4: EphA4(h) (human, UniProt P54764 570-986, limits assumed)
# T4 sequence (looked up): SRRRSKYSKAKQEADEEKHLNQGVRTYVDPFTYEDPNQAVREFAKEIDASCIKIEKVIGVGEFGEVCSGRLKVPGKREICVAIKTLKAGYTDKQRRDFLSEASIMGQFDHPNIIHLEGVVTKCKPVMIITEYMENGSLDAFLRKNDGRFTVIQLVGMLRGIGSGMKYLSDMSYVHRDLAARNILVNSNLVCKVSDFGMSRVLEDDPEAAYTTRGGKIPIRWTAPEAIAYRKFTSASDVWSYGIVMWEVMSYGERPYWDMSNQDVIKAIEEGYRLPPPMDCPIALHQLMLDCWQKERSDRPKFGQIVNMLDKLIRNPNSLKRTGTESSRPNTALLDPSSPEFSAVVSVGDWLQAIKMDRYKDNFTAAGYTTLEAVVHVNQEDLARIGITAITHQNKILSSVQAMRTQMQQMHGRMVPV
# What was measured:
# Assay in all cases: cell-based or functional assay
# [1] = target: Arg(h) (human, UniProt P42684 38-1182, limits assumed)
# Sequence of Arg(h) (P42684 38-1182 limits assumed): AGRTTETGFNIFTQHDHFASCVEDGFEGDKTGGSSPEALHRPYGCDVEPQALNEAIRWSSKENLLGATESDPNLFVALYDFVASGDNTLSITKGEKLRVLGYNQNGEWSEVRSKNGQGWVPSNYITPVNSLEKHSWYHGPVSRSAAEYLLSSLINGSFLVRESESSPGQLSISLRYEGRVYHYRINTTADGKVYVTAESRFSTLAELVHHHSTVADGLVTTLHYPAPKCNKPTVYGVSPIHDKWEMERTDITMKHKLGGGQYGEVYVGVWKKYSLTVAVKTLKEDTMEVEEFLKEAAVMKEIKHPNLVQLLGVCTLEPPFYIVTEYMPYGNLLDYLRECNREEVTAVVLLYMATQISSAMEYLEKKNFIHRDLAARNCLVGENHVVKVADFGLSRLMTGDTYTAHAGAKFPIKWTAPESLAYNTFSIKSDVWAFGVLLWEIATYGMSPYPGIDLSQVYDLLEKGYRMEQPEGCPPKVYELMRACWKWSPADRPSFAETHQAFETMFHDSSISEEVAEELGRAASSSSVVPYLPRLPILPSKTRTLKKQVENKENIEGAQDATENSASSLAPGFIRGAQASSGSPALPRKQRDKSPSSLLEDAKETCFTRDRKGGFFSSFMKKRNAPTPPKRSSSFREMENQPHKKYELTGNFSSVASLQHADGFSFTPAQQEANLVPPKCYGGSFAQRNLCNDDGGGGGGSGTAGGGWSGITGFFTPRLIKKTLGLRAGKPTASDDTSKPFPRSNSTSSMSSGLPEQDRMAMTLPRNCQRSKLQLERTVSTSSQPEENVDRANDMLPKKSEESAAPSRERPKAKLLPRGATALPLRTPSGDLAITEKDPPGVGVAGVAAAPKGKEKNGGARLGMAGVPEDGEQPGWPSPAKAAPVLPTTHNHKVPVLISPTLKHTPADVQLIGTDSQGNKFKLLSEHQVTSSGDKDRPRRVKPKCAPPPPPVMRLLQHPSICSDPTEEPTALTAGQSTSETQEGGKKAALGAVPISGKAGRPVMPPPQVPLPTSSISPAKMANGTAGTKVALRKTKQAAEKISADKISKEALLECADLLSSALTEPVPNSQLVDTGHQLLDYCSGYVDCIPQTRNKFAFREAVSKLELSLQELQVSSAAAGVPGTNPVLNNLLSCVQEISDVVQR
# [2] = target: Met(D1246N)(h) (human, UniProt P08581-2 974-1408, limits assumed)
# [3] = target: mTOR/FKBP12(h) (human, UniProt P42345 1362-2549; P62942 1-108)
# Sequence of mTOR/FKBP12(h) (P42345 1362-2549 limits assumed, chain 1 of 2): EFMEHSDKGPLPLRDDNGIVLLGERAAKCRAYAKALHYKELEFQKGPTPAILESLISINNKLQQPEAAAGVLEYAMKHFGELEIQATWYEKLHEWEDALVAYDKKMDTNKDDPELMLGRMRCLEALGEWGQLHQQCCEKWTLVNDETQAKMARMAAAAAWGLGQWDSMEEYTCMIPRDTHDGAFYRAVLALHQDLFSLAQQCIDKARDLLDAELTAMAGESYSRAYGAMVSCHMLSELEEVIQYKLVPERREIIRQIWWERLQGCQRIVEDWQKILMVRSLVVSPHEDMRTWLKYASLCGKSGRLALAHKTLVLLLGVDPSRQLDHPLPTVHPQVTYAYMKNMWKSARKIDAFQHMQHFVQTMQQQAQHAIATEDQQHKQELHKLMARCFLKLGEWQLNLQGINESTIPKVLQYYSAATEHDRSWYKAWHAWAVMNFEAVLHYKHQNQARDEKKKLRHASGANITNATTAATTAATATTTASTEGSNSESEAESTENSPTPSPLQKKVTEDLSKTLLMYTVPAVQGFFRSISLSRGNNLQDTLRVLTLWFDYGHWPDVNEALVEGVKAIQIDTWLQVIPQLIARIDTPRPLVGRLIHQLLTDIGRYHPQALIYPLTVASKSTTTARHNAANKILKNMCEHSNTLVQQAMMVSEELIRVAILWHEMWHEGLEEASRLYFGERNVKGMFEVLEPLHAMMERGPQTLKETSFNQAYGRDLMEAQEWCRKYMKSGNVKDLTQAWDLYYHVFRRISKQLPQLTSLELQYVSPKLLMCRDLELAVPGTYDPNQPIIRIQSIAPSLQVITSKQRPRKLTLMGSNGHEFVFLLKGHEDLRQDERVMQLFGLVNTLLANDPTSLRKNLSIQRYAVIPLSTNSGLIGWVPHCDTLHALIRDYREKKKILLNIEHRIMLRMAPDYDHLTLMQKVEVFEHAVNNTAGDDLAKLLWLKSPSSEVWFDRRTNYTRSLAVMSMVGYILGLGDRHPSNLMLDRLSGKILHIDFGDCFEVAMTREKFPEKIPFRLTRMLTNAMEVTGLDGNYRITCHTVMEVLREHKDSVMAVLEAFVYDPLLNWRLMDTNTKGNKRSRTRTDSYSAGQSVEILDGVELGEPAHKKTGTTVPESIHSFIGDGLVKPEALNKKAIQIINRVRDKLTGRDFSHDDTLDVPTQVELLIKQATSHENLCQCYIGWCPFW
# Sequence of mTOR/FKBP12(h) (P62942 whole entry, chain 2 of 2): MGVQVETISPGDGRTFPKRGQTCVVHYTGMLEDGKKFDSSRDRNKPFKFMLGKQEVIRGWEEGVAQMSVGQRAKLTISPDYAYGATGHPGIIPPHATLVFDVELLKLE
# [4] = target: T1, NEK11(h)
# [5] = target: T2, Rse(h)
# [6] = target: T3, TSSK2(h)
# [7] = target: WNK2(h) (human, UniProt Q9Y3S1 166-489, limits assumed)
# Sequence of WNK2(h) (Q9Y3S1 166-489 limits assumed): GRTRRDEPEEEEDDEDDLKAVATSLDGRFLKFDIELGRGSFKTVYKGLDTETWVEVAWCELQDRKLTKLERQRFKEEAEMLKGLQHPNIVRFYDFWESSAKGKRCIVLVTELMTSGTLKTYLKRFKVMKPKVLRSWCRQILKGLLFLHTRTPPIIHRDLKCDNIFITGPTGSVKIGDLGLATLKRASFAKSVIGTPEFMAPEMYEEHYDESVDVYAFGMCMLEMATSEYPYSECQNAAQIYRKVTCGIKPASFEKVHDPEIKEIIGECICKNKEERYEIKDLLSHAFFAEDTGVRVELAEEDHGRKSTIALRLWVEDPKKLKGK
# [8] = target: CDK2/cyclinA(h) (human, UniProt P24941 1-298; P20248 1-432)
# [9] = target: CHK2(I157T)(h) (human, UniProt O96017 5-543, limits assumed)
# Sequence of CHK2(I157T)(h) (O96017 5-543 I157T limits assumed): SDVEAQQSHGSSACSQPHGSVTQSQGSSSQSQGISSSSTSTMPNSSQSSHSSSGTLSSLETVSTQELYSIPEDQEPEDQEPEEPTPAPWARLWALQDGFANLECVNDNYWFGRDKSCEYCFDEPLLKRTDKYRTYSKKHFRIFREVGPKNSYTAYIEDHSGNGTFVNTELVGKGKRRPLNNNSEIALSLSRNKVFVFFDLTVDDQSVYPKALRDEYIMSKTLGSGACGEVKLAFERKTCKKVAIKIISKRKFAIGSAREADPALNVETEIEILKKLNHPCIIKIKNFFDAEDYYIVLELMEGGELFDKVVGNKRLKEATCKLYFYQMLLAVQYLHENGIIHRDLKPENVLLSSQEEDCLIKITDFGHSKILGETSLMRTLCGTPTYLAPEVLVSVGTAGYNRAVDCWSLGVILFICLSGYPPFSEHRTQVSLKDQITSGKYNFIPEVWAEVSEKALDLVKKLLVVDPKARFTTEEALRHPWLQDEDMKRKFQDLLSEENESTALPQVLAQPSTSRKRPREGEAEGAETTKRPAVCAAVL
# [10] = target: DAPK2(h) (human, UniProt Q9UIK4 1-370, limits assumed)
# Sequence of DAPK2(h) (Q9UIK4 whole entry): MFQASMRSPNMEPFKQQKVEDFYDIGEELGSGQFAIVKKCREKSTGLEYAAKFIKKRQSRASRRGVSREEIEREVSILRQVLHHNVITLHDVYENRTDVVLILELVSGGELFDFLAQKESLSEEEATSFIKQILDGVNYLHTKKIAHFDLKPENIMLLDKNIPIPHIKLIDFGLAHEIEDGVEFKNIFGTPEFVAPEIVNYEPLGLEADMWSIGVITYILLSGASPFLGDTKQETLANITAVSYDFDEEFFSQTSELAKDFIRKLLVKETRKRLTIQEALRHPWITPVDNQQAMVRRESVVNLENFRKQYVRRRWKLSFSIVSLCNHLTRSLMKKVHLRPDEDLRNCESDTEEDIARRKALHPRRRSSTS
# [11] = target: T4, EphA4(h)
# [12] = target: FGFR1(h) (human, UniProt P11362 456-765, limits assumed)
# Sequence of FGFR1(h) (P11362 456-765 limits assumed): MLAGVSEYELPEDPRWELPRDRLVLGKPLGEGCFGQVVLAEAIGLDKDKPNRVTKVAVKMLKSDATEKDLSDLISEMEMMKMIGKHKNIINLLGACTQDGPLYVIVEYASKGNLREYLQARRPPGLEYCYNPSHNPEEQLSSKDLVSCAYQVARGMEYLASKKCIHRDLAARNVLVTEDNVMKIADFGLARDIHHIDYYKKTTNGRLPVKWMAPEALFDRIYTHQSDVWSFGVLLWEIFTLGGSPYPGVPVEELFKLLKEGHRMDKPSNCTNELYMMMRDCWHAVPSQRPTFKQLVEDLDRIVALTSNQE
Binder,"% activity, 100 µM [1] [%]","% activity, 100 µM [2] [%]","% activity, 100 µM [3] [%]","% activity, 100 µM [4] [%]","% activity, 100 µM [5] [%]","% activity, 100 µM [6] [%]","% activity, 100 µM [7] [%]","% activity, 100 µM [8] [%]","% activity, 100 µM [9] [%]","% activity, 100 µM [10] [%]","% activity, 100 µM [11] [%]","% activity, 100 µM [12] [%]"
KAFAKLAARLYRKALARQLGVAA [MMI-0400],84,31,125,33,89,94,54,92,41,16,65,59
FAKLAARLYRKALARQLGVAA [MMI-0300],72,82,145,53,88,98,64,86,43,32,88,55
